{
  "source": "paper PMC2882252",
  "about": "(Journal of the American Chemical Society, 2009)",
  "molecules": {"B1": {"name": "glutamate racemase (RacE) (Bacillus subtilis subsp. subtilis str. 168) (protein)", "chain": "MLEQPIGVIDSGVGGLTVAKEIMRQLPKENIIYVGDTKRCPYGPRPEEEVLQYTWELTNYLLENHHIKMLVIACNTATAIALDDIQRSVGIPVVGVIQPGARAAIKVTDNQHIGVIGTENTIKSNAYEEALLALNPDLKVENLACPLLVPFVESGKFLDKTADEIVKTSLYPLKDTSIDSLILGCTHYPILKEAIQRYMGEHVNIISSGDETAREVSTILSYKGLLNQSPIAPDHQFLTTGARDQFAKIADDWFGHEVGHVECISLQEPIKR"}},
  "key": {"[1]": {"molecular_target": "glutamate racemase (RacE) (Bacillus subtilis, UniProt P94556)", "assay_type": "biochemical"}, "N[C@H](CCC(=O)O)C(=O)O": {"system": "N[C@H](CCC(=O)O)C(=O)O", "experiment": "purified protein", "assay_type": "biochemical, Bacillus subtilis", "details": "active site"}, "purified protein": {"substrate": "N[C@@H](CCC(=O)O)C(=O)O", "experiment": "purified protein", "details": "active site, between Cys74 and Cys185"}},
  "data": [
    {"molecule": "O=C(O)c1cccc(C(=O)O)n1", "note": "[DPA, 2,6-pyridinedicarboxylic acid]", "values": [
      {"measurement": "Ki", "setting": "[1]", "value": "1970 ± 1160", "unit": "µM"}
    ]},
    {"molecule": "glutamate racemase (RacE) T76A (Bacillus subtilis subsp. subtilis str. 168; T76A)", "values": [
      {"measurement": "Km", "setting": "N[C@H](CCC(=O)O)C(=O)O", "value": "8.6 ± 1.4", "unit": "mM"}
    ]},
    {"molecule": "B1", "values": [
      {"measurement": "Km", "setting": "purified protein", "value": "14 ± 6", "unit": "mM"}
    ]}
  ]
}
